Results from patent US20250230254A1 (Janssen / Centocor, published 2025).

B1: KL2B870 (KL2B30 in hIgG1-RE) (antibody)
heavy: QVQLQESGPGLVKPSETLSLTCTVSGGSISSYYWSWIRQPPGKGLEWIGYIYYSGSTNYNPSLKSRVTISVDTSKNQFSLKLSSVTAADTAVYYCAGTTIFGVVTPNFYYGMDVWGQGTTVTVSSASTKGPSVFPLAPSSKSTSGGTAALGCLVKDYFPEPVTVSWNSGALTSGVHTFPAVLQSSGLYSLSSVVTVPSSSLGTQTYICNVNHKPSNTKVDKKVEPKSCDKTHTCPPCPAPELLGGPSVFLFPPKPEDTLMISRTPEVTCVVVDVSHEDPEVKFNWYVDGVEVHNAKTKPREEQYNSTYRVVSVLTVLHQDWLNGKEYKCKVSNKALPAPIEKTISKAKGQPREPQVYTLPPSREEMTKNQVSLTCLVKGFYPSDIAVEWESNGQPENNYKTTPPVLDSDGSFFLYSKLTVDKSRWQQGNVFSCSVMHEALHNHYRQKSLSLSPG
light: DIQMTQSPSFLSASVGDRVTITCRASQGISSYLAWYQQKPGKAPKFLIYAASTLQSGVPSRFSGSGSGTEFTLTISSLQPEDFATYYCQQLNSYPLTFGGGTKVEIKRTVAAPSVFIFPPSDEQLKSGTASVVCLLNNFYPREAKVQWKVDNALQSGNSQESVTEQDSKDSTYSLSSTLTLSKADYEKHKVYACEVTHQGLSSPVTKSFNRGEC
B2: KL2B872.CLF (antibody, human IgG1, kappa)
heavy: not shown
light: B1 light
modifications: low fucosylation of the Fc oligosaccharide (less than 10% fucosylation)
B3: KL2B870.CLF (antibody, human IgG1, kappa)
heavy: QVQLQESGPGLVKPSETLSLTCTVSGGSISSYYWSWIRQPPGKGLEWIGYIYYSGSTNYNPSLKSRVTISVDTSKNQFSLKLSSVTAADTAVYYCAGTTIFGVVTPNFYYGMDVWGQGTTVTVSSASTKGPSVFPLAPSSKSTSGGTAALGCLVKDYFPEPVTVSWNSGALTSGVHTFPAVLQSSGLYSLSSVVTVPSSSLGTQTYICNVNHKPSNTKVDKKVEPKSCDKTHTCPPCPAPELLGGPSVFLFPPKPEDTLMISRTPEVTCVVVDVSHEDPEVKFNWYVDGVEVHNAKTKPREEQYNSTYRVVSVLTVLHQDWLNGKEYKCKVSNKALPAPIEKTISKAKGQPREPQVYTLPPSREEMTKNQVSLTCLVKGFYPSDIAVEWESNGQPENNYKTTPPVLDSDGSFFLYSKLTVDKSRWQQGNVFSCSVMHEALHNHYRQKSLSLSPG
light: B1 light
modifications: low fucosylation of the Fc oligosaccharide (less than 10% fucosylation)

The binders below were run against T1, KLK2 (UniProt P20151 25-261, limits assumed) (assay: cell-based or functional assay).
T1 sequence (P20151 25-261 limits assumed): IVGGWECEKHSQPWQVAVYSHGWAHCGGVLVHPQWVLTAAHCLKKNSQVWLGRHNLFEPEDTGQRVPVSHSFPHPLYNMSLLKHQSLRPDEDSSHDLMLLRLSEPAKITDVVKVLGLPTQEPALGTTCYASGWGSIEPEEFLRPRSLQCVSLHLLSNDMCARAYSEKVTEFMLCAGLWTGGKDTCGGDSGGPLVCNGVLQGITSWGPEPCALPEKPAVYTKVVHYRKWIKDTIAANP

Row | Binder | ADCC activity, percent cell killing of VCaP cells by PBMC
1 | B1 | ~73%
2 | B2 | ~85%
3 | B3 | ~89%

Target: T1, KLK2
Experiment: cell-based or functional assay
Remark: another data set of the same source

Row | Binder | ADCC killing EC50 (M), PBMC effector cells on VCaP cells, 48 hours
4 | B1 | 1e-09 M
5 | B2 | 4.12e-10 M
6 | B3 | 3.54e-10 M
